Assay [1] deals with human T cell clones T-50 and T-87. Nature of the assay: Peptide-specific T cell activation with melanoma cells as antigen-presenting cells, H3-thymidine incorporation. It counts as cell-based. To be noted: melanoma cells as APC, tetanus toxoid peptide p4; CIITA transfected vs 48 hours interferon gamma. As for the experimental part: FIG. 9. Activation of human T cell clones with transfectants and interferon-stimulated cells used as APC's. Three types of cells were tested as APC'S: Untransfected melanoma cell line, MHC class II negative (o); The same cell line following 48 hours of exposure to […] of interferon gamma, MHC class II positive (black square ); The same cell line previously transfected with CIITA cDNA, MHC class it positive (black triangle). These cells were treated with various concentrations of p4, a tetanus toxoid peptide, at the concentrations indicated, fixed by UV light and incubated with two different human T cell clones specific for that peptide, T-50 and T-87. The extent of T cell activation was measured by incorporation of […] in a standard assay, and expressed as “stimulation index”.
Cells where the expression of MHC class II molecules had been induced by the transactivator gene CIITA (as CIITA cDNA) were tested for their ability to bind exogenously provided peptides and to present such peptides to T cell clones. These CIITA transfectants were compared with the same cells where MHC class II expression had been induced by interferon gamma. […] Peptide-specific T cell activation by these two types of MHC class II positive cells was measured by H3-thymidine incorporation, expressed as a stimulation index. […]

For assay [2], the system named is MHC class II positive cells. Nature of the assay: Peptide binding ability of MHC class II positive melanoma cells. It counts as cell-based, human. The settings on record: CIITA transfectants vs interferon activated. The method, then:
Cells where the expression of MHC class II molecules had been induced by the transactivator gene CIITA (as CIITA cDNA) were tested for their ability to bind exogenously provided peptides and to present such peptides to T cell clones. These CIITA transfectants were compared with the same cells where MHC class II expression had been induced by interferon gamma. The two types of cells expressed MHC class II molecules at the surface at a similar level. […] Peptide-specific T cell activation by these two types of MHC class II positive cells was measured by H3-thymidine incorporation, expressed as a stimulation index. In this particular experiment, melanoma cells were used as antigen-presenting cells.
In agreement with these functional results, the peptide binding ability of these two types of MHC class II positive cells was drastically different, being low in the interferon activated cells and high in the CIITA transfectants. Thus, CIITA induces the expression of MHC class II molecules that are unusual in their highly efficient capacity to bind and to present peptides to T lymphocytes, leading to activation of these lymphocytes.

The values that follow come from patent US20020155542A1, “Inhibitors for suppressing the activity of proteins displaying CIITA activity, methods for their identification and pharmaceutical compositions” (priority 1994, published 2002).

B1: interferon gamma (protein, UniProt P01579 24-161, looked up)
Interferon gamma: QDPYVKEAENLKKYFNAGHSDVADNGTLFLGILKNWKEESDRKIMQSQIVSFYFKLFKNFKDDQSIQKSVETIKEDMNVKFFNSNKKKRDDFEKLTNYSVTDLNVQRKAIHELIQVMAELSPAAKTGKRKRSQMLFRG
notes: lymphokine used to induce MHC class II expression in melanoma cells, comparator to CIITA transfection
For the molecule B1, the “peptide-specific T cell activation (stimulation index)” value in assay [1] is on record as “failed to induce significant T cell activation”. The peptide binding ability result in assay [2] is “low”.
